Reference: patent publication US20230041071A1 (NATIONAL INSTITUTE OF BIOLOGICAL SCIENCES BEIJING, published 2023)
Residue numbers refer to the chain shown, from its start. Where no end group is shown, it is not given here.

Key:
mAREG-EGFd-DLLA-mFc = target: T1, mAREG-EGFd-DLLA-mFc (mouse, UniProt P31955 135-177, limits assumed); experiment: competition ELISA; antibody titrated against 50 nM mAREG-DLLA on captured mEGFR-ECD
T1 construct: Expressed in 293F cells; also called mAREG-DLLA
T1 chain: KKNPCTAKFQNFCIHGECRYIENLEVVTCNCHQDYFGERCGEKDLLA
Experimental: Briefly, streptavidin (Sigma, 5 μg/mL) were coated in U-bottom 96-well plates, 100 nM biotinylated hEGFR-ECD or mEGFR-ECD in 100 μL per well were then captured onto the plates. Different antibodies at serial diluted concentrations were mixed with 5 nM hAREG-DLLA or 50 nM mAREG-DLLA protein and added to the ELISA plate. The binding of hAREG-DLLA to hEGFR-ECD or the binding of mAREG-DLLA to mEGFR-ECD was detected by HRP-conjugated mouse anti-mouse IgG Fc antibody (Thermo Fisher).
To facilitate the competition ELISA assay, we used the hAREG-EGFd-DLLA-mFc (hAREG-DLLA) or mAREG-EGFd-DLLA-mFc (mAREG-DLLA) as the ligands for binding to EGFR in the assay.

C18 peptide [1] = target: T2, C18 peptide (human, cysteine pairing not given here; also: biotinylated, position not given here); experiment: ELISA, biotinylated C18 peptide captured on streptavidin-coated plate, bound IgG detected with HRP anti-Fc antibody
T2 construct: Synthetic (Scilight-peptide); also called hAREG-C18; C-terminal peptide
T2 peptide: GSSGKCQQEYFGERCGEK
Experimental: (§1) Streptavidin (Sigma, […]) in phosphate buffered saline (PBS) was coated in U-bottom 96-well plate (Nunc, MaxiSorp™), 100 μL per well, at 4° C. overnight or 37° C. for 1 hour.
(§2) About […] of AREG protein or peptide at 100 μL per well were then captured onto the plates by incubation at 30° C. for 1 hour. For phage-scFv based ELISA, serial diluted phage-scFvs in PBS containing 2% nonfat milk were added to each well at 100 μL per well. Specific bound phage-scFvs were detected by adding HRP-conjugated mouse anti-M13 antibody (GE Healthcare) and incubated for 30 mins at 30° C. In between each incubation step, the ELISA plate was washed for 6 times with PBST solution (0.05% Tween20 containing PBS) at 300 µL per well. Followed by HRP-conjugated antibody incubation, the ELISA signal was developed by incubating with TMB substrate (Sigma) for 5-10 mins at 30° C. and then the reaction was stopped with 2M H₂SO₄ at 50 µL per well. The absorbance at 450 nm with the correction wavelength set at 630 nm was read by a microplate reader (Bio-Rad). For IgG based ELISA, the method was basically the same as described above for phage-scFvs except the bound antibodies were detected by HRP-conjugated mouse anti-Fc secondary antibody (Thermo Fisher Scientific).

[2] = target: T3, hAREG: human AREG comprising residues 101-184 of the human pro-AREG with an N-terminal AVI tag (human, biotinylated using BirA enzyme (Avi tag)); experiment: ELISA, biotinylated hAREG captured on streptavidin-coated plate, bound IgG detected with HRP anti-Fc antibody
T3 construct: Expressed in E. coli with His6-TRX-3C site-Avi tags and cleaved by HRV 3C protease; also called biotinylated hAREG
T3 chain: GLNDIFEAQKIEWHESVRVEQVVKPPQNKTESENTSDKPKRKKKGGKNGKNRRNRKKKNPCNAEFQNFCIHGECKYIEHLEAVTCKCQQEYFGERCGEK
Experimental: as §1, §2

[3] = target: T4, mAREG: mouse AREG comprising residues 94-177 of the mouse pro-AREG with an N-terminal AVI tag (mouse, biotinylated using BirA enzyme (Avi tag)); experiment: ELISA, biotinylated mAREG captured on streptavidin-coated plate, bound IgG detected with HRP anti-Fc antibody
T4 construct: Expressed in E. coli, cleaved by HRV 3C protease, biotinylated; also called biotinylated mAREG
T4 chain: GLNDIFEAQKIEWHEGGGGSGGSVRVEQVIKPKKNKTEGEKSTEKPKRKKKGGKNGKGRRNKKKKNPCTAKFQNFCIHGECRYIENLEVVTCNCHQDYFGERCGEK
Experimental: as §1, §2

hAREG-EGFd-mFc = target: T5, hAREG-EGFd-mFc (human; mouse, UniProt P15514 142-184); experiment: SPR, Biacore T200; mAb captured on anti-human Fc chip, antigen in solution
T5 construct: Expressed in 293F cells; not shown: Fc fragment of mouse IgG2a
T5 chain: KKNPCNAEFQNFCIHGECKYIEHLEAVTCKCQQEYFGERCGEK
Experimental: (§3) To evaluate affinities of different mouse hybridoma mAbs or their humanized and engineered variants, SPR measurement was performed using Biacore T200 instrument. mAbs were captured on anti-human Fc CM5 biosensor chip surface, hAREG-EGFd-mFc, mAREG-EGFd-mFc or hAREG-98aa (purchased from PeproTech, cat #100-55B) in serial dilutions were injected over antibody-bound surface, followed by a dissociation phase. Association rates (Ka) and dissociation rates (Kd) were calculated using the one-to-one Langmuir binding model (BIA Evaluation Software, GE Life Sciences). The equilibrium dissociation constant (KD) was calculated as the ratio kd/ka.

mAREG-EGFd-mFc = target: T6, mAREG-EGFd-mFc (mouse, UniProt P31955 135-177); experiment: as above
T6 construct: also called EGF domain of mAREG (aa135-177) fused with mFc tag; not shown: mFc tag (Fc fragment of mouse IgG2a as for hAREG-EGFd-mFc)
T6 chain: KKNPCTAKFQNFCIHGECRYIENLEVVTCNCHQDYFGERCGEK
Experimental: as §3

hAREG-98aa = target: T7, hAREG-98aa (human, UniProt P15514 101-198); experiment: as above
T7 construct: Bought protein
T7 sequence (looked up): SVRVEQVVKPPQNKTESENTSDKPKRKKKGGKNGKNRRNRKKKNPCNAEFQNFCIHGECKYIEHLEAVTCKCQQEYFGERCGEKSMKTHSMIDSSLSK
Experimental: as §3

hAREG-E149K variant = target: T8, hAREG-E149K variant (human, UniProt P15514 142-184); experiment: SPR (Biacore T200)
T8 construct: also called E149K variant of hAREG-EGFd
T8 chain: T5 chain with E8K

hAREG-H164N variant = target: T9, hAREG-H164N variant (human, UniProt P15514 142-184); experiment: SPR (Biacore T200)
T9 construct: also called H164N variant of hAREG-EGFd
T9 chain: T5 chain with H23N

C18 peptide [4] = target: T2, C18 peptide; experiment: phage antibody library selection on the C18 peptide and ELISA screening
Experimental: (§4) Phage particles expressing scFv on their surface (phage-ScFv) were prepared from the library and used for selection of scFvs against the target antigens including the biotinylated AREG proteins and peptides. The antigens were captured on streptavidin-conjugated magnetic M-280 Dynabeads® (Life Technologies) and then incubated with 5×10¹² phage particles prepared from the library, respectively. For each soluble AREG protein or peptide (antigen, Ab), two rounds of selection were performed. For obtaining cross-reactive human mAbs recognizing both hAREG and mAREG, the hAREG and mAREG were used respectively in the 1st and 2nd rounds of selection. […] Some of the phage-Abs were subsequently converted into human IgG1 (hIgG1) or mouse IgG2a format and analyzed for binding to both hAREG and mAREG using enzyme-linked immunosorbent assay (ELISA) or Biacore.
(§5) About […] of AREG protein or peptide at 100 μL per well were then captured onto the plates by incubation at 30° C. for 1 hour. […] Specific bound phage-scFvs were detected by adding HRP-conjugated mouse anti-M13 antibody (GE Healthcare) and incubated for 30 mins at 30° C. […] The absorbance at 450 nm with the correction wavelength set at 630 nm was read by a microplate reader (Bio-Rad). […]

[5] = target: T10, biotinylated mAREG-EGFd (expressed in E. coli) (mouse, UniProt P31955 135-177, limits assumed, biotinylated); experiment: phage antibody library selection and ELISA screening
T10 construct: domain: EGFd; E. coli-expressed biotinylated form used for the library selection; not the mFc fusion m33
T10 chain (looked up): T6 chain
Experimental: as §4, §5

[6] = target: T3, hAREG: human AREG comprising residues …; experiment: ELISA screening after phage library selection
[7] = target: T4, mAREG: mouse AREG comprising residues …; experiment: ELISA screening after phage library selection
[8] = target: T3, hAREG: human AREG comprising residues …; experiment: hybridoma screening by ELISA on biotinylated hAREG and SPR
Experimental: The supernatant of hybridoma clones were examined for binding activity to biotinylated hAREG by ELISA. Clones with high binding activity were selected and expanded for subsequent subcloning, and the supernatant of the subclones were analyzed by ELISA and SPR. The SPR analysis was performed using Biacore T200 instrument (GE Life Sciences). Diluted supernatant was captured on anti-mFc CM5 biosensor chip, then 200 nM of hAREG EGF domain-hFc flowed in mobile phase. Subclones with high affinity was expanded for RNA extraction. Cells were resuspended in TRIzol (Life Technologies), and total RNA was extracted following the instruction manual. The cDNA of subclones was synthesized using PrimeScript™ RT Master Mix (TaKaRa). The VH and VL genes of each antibody were amplified using a set of PCR primers specific to mouse antibody variable genes. PCR products were cloned into a PCR sequencing vector for sequencing.

B1: E1H3L4 (antibody, V domains shown)
VH: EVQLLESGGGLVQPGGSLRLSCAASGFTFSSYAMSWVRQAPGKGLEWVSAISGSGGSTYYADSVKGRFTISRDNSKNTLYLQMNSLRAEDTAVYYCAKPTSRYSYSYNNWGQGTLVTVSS
VL: QAVLTQPPSASGTPGQRVTISCTGNSNNVGDQGAVWYQQLPGTAPKLLIYRNNNRPSGVPDRFSGSKSGTSASLAISGLQSEDEADYYCSTWDKNNKSVVFGGGTKLTVL
notes: Human IgG1 or mouse IgG2a format
Question: Does B1 bind (mAREG-EGFd-DLLA-mFc)?
Answer: Result: binds

Question: What about the “EC50 (read off the curve)” value (C18 peptide [1]) of the same binder?
Answer: Its value is ~0.2 nM.

Question: What about the “EC50 (read off the curve)” value [2] of the same binder?
Answer: Its value is ~0.06 nM.

Question: And the “EC50 (read off the curve)” value [3]?
Answer: The value was ~0.5 nM.

B2: P7 (antibody, V domains shown)
VH: EVQLVQSGGGVVQPGRSLRLSCAASGFIFSSHAMSWVRQAPGKGLEWVSAISGSGGSTYYADSVKGRFTISRDNSKNTLYLQMNSLRAEDTAVYYCAKVDTKFDPWGQGTLVTVSS
VL: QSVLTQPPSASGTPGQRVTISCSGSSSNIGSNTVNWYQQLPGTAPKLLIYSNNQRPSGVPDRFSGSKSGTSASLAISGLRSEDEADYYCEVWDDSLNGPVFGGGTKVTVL
notes: Human mAb from a phage scFv library, selected on the C18 peptide; Human IgG1 or mouse IgG2a format
Question: Does B2 bind (mAREG-EGFd-DLLA-mFc)?
Answer: Result: binds

Question: What about the “EC50 (read off the curve)” value (C18 peptide [1]) of the same binder?
Answer: The value was ~0.06 nM.

Question: And the “EC50 (read off the curve)” value [2]?
Answer: The value was ~0.08 nM.

Question: What about the “EC50 (read off the curve)” value [3] of the same binder?
Answer: The value was ~0.9 nM.

B3: hu9C12v4 (antibody, V domains shown)
VH: EVQLVESGGGLVKPGGSLRLSCAASGFTFSSYPMSWVRQAPEKGLEWVSTISTGGRYTYYPDSVKGRFTISRDNAKNSLYLQMNSLRAEDTAVYYCARQGPIYYGNYYYAMDYWGQGTTVTVSS
VL: DIVMTQSPLSLPVTLGDPASISCRSSQSLVDGEDGTYLNWFQQRPGQSPKLLIYKVSERFDGVPDRFSGSGSGTDFTLKISRVEAEDVGVYYCSQSTHVPYTFGGGTKVEIK
notes: Humanized 9C12 variant
Question: Does B3 bind (mAREG-EGFd-DLLA-mFc)?
Answer: Result: binds

Question: And the Kd (hAREG-EGFd-mFc)?
Answer: The Kd was 1.04 nM.

Question: And the koff (hAREG-EGFd-mFc)?
Answer: The koff was 0.00077 s⁻¹.

Question: And the kon (hAREG-EGFd-mFc)?
Answer: The kon was 745000 M⁻¹ s⁻¹.

Question: And the Kd (mAREG-EGFd-mFc)?
Answer: Its Kd is 9.01 nM.

Question: What about the Kd (hAREG-98aa) of the same binder?
Answer: Its Kd is 0.462 nM.

Question: What about the koff (hAREG-98aa) of the same binder?
Answer: Its koff is 0.00372 s⁻¹.

Question: What about the kon (hAREG-98aa) of the same binder?
Answer: The kon was 8.04e+06 M⁻¹ s⁻¹.

Question: Does B3 bind (hAREG-E149K variant)?
Answer: Result: binds

Question: Does B3 bind (hAREG-H164N variant)?
Answer: Result: no binding

B4: E1L2 (antibody, V domains shown)
VH: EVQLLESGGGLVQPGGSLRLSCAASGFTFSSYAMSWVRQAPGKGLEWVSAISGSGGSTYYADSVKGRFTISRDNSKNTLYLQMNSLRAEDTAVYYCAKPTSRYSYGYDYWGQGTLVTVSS
VL: QAGLTQPPSVSKGLRQTATLTCTGNSNNVGDQGAVWLQQHQGHPPRLLSYRNNNRPSGISERFSASRSGNTASLTITGLQPEDEADYYCSTWDSGLNSVVFGGGTQLTVL
notes: Human mAb from a phage scFv library; Phage-Abs were converted into human IgG1 or mouse IgG2a format
Question: Does B4 bind (C18 peptide [4])?
Answer: Result: binds

Question: Does B4 bind [5]?
Answer: Result: binds

Question: Does B4 bind [6]?
Answer: Result: binds

Question: Does B4 bind [7]?
Answer: Result: binds

B5: 9C12 (antibody, V domains shown)
VH: EVKLVESGGGLVKPGGSLKLSCAASGFTFSSYPMSWVRQTPEKRLEWVATISTGGTYTYYPDSVKGRFTISRDNAKNTLYLQMSSLRSEDTAMYYCARQGPIYYGNYYYAMDYWGQGTSVTVSS
VL: DIVMTQPPLSLPVSLGDQASISCRSSQSLVHSDGNTYLHWYLQRPGQSPKLLIYKVSNRFSGVPDRFSGSGSGTDFTLKISRVEAEDLGVYFCSQSTHVPYTFGGGTKLEIK
notes: Mouse hybridoma mAb; made recombinantly as mIgG1, mIgG2a or chimeric human IgG1; also called m9C12
Question: Does B5 bind [8]?
Answer: Result: binds

B6: 23H8 (antibody, V domains shown)
VH: EVQLQESGGGLVKPGGSLKLSCAASGFTFNSYAMSWVRQTPEKRLEWVATISTGGSHTYYPDSVKGRFTISRDNAKNTLYLQMSSLRSEDTAMYYCARHGYLLYDGYYEWYFDVWGAGTTVTVSS
VL: DIVLTQSPASLAVSLGQRATISCKASQSVDYDGHSFLNWYQQKPGQPPKLLIYAASNLESGLPARFSGSGSGTDFTLNIHPVEEEDAATYYCQQSTEDPPYTFGGGTKLEIK
notes: Mouse hybridoma mAb; made recombinantly as mIgG1, mIgG2a or chimeric human IgG1; also called m23H8
Question: Does B6 bind [8]?
Answer: Result: binds
